From patent US20170176432A1 (OSAKA UNIVERSITY, published 2017)
Each block holds one binder with its values, some of them ahead of it.

Tests used:
[1] = biological target: T1, human β2-glycoprotein I (β2-GPI) (human, UniProt P02749 20-345); experiment: flow cytometry of surface β2-GPI on 293T; HLA-DRB1*01:03
T1 construct: whole, on cells
T1 sequence (looked up): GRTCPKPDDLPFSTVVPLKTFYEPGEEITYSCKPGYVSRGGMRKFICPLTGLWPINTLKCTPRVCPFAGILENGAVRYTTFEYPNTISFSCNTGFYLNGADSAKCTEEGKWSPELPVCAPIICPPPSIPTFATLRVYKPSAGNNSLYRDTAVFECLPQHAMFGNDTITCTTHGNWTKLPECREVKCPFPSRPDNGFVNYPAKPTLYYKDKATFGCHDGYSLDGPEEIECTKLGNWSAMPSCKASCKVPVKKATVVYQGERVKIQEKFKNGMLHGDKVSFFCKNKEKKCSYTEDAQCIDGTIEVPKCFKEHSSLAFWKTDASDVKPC

human thyroglobulin (TG) [2] = biological target: T2, human thyroglobulin (TG) (human, UniProt P01266 20-2768); experiment: flow cytometry of surface TG (anti-histidine antibody) on 293T; HLA-DRB1*01:03
T2 construct: whole, on cells; the tag is not described
T2 sequence (P01266 20-2768): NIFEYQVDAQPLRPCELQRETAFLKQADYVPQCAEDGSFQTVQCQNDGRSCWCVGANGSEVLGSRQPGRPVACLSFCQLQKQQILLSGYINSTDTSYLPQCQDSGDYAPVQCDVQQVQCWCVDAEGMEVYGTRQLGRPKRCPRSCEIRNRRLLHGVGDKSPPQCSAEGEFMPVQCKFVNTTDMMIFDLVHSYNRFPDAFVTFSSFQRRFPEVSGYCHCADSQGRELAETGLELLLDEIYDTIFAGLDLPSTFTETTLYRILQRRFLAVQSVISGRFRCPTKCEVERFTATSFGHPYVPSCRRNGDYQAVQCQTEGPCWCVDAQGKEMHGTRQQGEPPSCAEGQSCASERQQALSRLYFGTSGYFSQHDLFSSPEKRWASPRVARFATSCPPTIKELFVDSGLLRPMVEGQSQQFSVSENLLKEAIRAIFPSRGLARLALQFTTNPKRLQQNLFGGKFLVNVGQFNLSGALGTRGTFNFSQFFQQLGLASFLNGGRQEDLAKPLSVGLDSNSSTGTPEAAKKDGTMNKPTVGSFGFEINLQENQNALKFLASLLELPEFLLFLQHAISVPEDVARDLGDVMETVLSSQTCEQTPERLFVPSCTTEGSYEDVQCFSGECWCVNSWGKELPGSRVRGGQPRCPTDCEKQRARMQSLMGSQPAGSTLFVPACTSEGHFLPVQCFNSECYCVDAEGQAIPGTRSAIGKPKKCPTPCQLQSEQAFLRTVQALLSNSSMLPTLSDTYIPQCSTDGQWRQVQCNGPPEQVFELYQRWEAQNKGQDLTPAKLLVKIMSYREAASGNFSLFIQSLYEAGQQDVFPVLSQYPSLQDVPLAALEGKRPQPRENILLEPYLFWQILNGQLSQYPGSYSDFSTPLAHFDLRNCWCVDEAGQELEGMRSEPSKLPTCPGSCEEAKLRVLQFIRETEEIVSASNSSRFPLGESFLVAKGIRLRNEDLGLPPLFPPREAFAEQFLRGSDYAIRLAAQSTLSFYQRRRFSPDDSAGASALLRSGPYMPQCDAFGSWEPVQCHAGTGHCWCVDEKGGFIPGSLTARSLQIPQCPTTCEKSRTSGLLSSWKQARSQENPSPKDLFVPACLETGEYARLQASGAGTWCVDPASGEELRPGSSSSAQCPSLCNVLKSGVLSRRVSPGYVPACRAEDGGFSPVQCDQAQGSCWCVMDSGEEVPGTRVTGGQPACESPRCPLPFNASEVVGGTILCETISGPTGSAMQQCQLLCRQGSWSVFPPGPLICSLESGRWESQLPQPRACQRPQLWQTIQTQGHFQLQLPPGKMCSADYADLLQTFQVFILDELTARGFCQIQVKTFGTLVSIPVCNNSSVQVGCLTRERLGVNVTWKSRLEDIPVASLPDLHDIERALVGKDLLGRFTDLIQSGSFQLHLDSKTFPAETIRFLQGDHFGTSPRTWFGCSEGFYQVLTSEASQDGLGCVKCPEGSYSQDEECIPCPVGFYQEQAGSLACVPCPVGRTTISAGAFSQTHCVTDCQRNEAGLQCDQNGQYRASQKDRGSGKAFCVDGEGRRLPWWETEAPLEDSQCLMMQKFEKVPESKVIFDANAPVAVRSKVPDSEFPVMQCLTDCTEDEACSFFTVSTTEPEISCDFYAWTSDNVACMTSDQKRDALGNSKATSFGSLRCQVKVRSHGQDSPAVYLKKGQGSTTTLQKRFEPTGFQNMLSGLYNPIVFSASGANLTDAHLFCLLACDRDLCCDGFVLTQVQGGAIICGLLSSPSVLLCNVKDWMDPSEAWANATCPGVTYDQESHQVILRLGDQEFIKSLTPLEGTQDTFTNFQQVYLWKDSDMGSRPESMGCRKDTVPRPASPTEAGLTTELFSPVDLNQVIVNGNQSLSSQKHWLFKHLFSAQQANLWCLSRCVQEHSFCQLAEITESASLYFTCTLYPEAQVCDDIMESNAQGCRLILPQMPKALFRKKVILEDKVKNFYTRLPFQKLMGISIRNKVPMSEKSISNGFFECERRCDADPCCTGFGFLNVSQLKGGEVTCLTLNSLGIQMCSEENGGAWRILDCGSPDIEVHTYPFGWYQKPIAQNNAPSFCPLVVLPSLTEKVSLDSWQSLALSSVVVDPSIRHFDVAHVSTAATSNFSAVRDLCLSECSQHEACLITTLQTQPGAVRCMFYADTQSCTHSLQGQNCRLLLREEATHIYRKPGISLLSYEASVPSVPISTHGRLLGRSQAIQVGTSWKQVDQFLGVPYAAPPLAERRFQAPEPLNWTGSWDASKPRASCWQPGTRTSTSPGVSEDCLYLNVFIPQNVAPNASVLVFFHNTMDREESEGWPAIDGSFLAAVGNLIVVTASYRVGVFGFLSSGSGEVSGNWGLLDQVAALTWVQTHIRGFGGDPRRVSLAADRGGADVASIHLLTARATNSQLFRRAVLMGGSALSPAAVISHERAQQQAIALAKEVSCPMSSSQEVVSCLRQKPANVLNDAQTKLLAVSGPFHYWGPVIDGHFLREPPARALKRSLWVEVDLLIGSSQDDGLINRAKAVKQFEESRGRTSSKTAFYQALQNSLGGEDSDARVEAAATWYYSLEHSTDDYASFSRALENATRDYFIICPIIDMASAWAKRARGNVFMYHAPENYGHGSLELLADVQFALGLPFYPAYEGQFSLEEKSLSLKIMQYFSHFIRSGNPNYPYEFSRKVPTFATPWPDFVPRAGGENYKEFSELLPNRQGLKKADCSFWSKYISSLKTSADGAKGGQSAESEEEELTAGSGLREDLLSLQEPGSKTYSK

[3] = biological target: T1, human β2-glycoprotein I (β2-GPI); experiment: flow cytometry of surface β2-GPI on 293T; HLA-DRB1*04:01
[4] = biological target: T1, human β2-glycoprotein I (β2-GPI); experiment: flow cytometry of surface β2-GPI on 293T; HLA-DRB1*01:01
[5] = biological target: T1, human β2-glycoprotein I (β2-GPI); experiment: flow cytometry of surface β2-GPI on 293T; HLA-DRB1*14:01
[6] = biological target: T1, human β2-glycoprotein I (β2-GPI); experiment: flow cytometry of surface β2-GPI on 293T; HLA-DRB1*04:05
[7] = biological target: T1, human β2-glycoprotein I (β2-GPI); experiment: flow cytometry of surface β2-GPI on 293T; HLA-DRB1*13:01
[8] = biological target: T1, human β2-glycoprotein I (β2-GPI); experiment: flow cytometry of surface β2-GPI on 293T cells (β2-GPI+HLA-DR4)
Protocol: The HLA-DRA*01:01 vector as an α-chain expression vector, the HLA-DRB1*04:04 vector as a β-chain expression vector, the β2-GPI vector, and the GFP vector were introduced to 293T cells, and the 293T cells were cultured. The cultured cells were reacted with an anti-β2-GPI antibody or an anti-cardiolipin antibody (aCL), and further reacted with the APC-labeled anti-human IgG antibody. Then, GFP-positive cells were subjected to flow cytometry analysis in the same manner as in Example 1A. As Control 1, the analysis was performed in the same manner, except that only the β2-GPI expression vector was introduced. As Control 2, the analysis was performed in the same manner, except that only the GFP vector was introduced. [0219] anti-β2-GPI antibody: polyclonal antibody, available from Atlas antibodies [0220] human anti-cardiolipin antibody: Clone EY2C9, supplied by Professor Atsumi, School of Medicine in Hokkaido University. Reference was made to the following paper: Ichikawa, K., M. A. Khamashta, T. Koike, E. Matsuura, and G. R. V. Hughes. 1994. P2-Glycoprotein I reactivity of monoclonal anticardiolipin antibodies from patients with the antiphospholipid syndrome. Arthritis Rheum. 37: 1453.

[9] = biological target: T1, human β2-glycoprotein I (β2-GPI); experiment: flow cytometry of surface β2-GPI on 293T; HLA-DRB1*11:01
[10] = biological target: T1, human β2-glycoprotein I (β2-GPI); experiment: flow cytometry of surface β2-GPI on 293T; HLA-DRB1*04:03
[11] = biological target: T1, human β2-glycoprotein I (β2-GPI); experiment: flow cytometry of surface β2-GPI on 293T; HLA-DRB1*07:01
[12] = biological target: T1, human β2-glycoprotein I (β2-GPI); experiment: flow cytometry of surface β2-GPI on 293T; HLA-DRB1*08:01
[13] = biological target: T1, human β2-glycoprotein I (β2-GPI); experiment: flow cytometry of surface β2-GPI on 293T; HLA-DRB1*04:06
[14] = biological target: T1, human β2-glycoprotein I (β2-GPI); experiment: flow cytometry of surface β2-GPI on 293T; HLA-DRB1*14:03
human thyroglobulin (TG) [15] = biological target: T2, human thyroglobulin (TG); experiment: flow cytometry of surface TG (anti-histidine antibody) on 293T; HLA-DRB1*14:03
[16] = biological target: T1, human β2-glycoprotein I (β2-GPI); experiment: flow cytometry of surface β2-GPI on 293T; HLA-DRB1*10:01
[17] = biological target: T1, human β2-glycoprotein I (β2-GPI); experiment: flow cytometry of surface β2-GPI on 293T; HLA-DRB1*08:03
[18] = biological target: T1, human β2-glycoprotein I (β2-GPI); experiment: flow cytometry of surface β2-GPI on 293T; HLA-DRB1*13:02
[19] = biological target: T1, human β2-glycoprotein I (β2-GPI); experiment: flow cytometry of surface β2-GPI on 293T; HLA-DRB1*12:01
[20] = biological target: T1, human β2-glycoprotein I (β2-GPI); experiment: flow cytometry of surface β2-GPI on 293T; HLA-DRB1*14:02
[21] = biological target: T1, human β2-glycoprotein I (β2-GPI); experiment: flow cytometry of surface β2-GPI on 293T; HLA-DRB1*04:02
[22] = biological target: T1, human β2-glycoprotein I (β2-GPI); experiment: flow cytometry of surface β2-GPI on 293T; HLA-DRB1*03:01
[23] = biological target: T1, human β2-glycoprotein I (β2-GPI); experiment: flow cytometry of surface β2-GPI on 293T; HLA-DRB1*13:03
[24] = biological target: T1, human β2-glycoprotein I (β2-GPI); experiment: flow cytometry of surface β2-GPI on 293T; HLA-DRB1*09:01

binding result [1]: binds
binding result (human thyroglobulin (TG) [2]): binds
B1: HLA-DR (HLA-DRA*01:01/HLA-DRB1*01:03) (other, human)
MHC II alpha: not shown
MHC II beta: not shown
notes: whole, on cells

binding result [3]: binds
B2: HLA-DR (HLA-DRA*01:01/HLA-DRB1*04:01) (other, human)
MHC II alpha: not shown
MHC II beta: not shown
notes: whole, on cells

binding result [4]: binds
B3: HLA-DR (HLA-DRA*01:01/HLA-DRB1*01:01) (other, human)
MHC II alpha: not shown
MHC II beta: not shown
notes: whole, on cells; also called HLA-DR1; HLA-DR0101

binding result [5]: binds
B4: HLA-DR (HLA-DRA*01:01/HLA-DRB1*14:01) (other, human)
MHC II alpha: not shown
MHC II beta: not shown
notes: whole, on cells

binding result [6]: binds
B5: HLA-DR (HLA-DRA*01:01/HLA-DRB1*04:05) (other, human)
MHC II alpha: not shown
MHC II beta: not shown
notes: whole, on cells

binding result [7]: binds
B6: HLA-DR (HLA-DRA*01:01/HLA-DRB1*13:01) (other, human)
MHC II alpha: not shown
MHC II beta: not shown
notes: whole, on cells

binding result [8]: binds
B7: HLA-DR (HLA-DRA*01:01/HLA-DRB1*04:04) (other, human)
MHC II alpha: not shown
MHC II beta: not shown
notes: whole, on cells; also called HLA-DR4; HLA-DR0404

binding result [9]: binds
B8: HLA-DR (HLA-DRA*01:01/HLA-DRB1*11:01) (other, human)
MHC II alpha: not shown
MHC II beta: not shown
notes: whole, on cells

binding result [10]: binds
B9: HLA-DR (HLA-DRA*01:01/HLA-DRB1*04:03) (other, human)
MHC II alpha: not shown
MHC II beta: not shown
notes: whole, on cells

binding result [11]: binds
B10: HLA-DR (HLA-DRA*01:01/HLA-DRB1*07:01) (other, human)
MHC II alpha: not shown
MHC II beta: not shown
notes: whole, on cells; also called HLA-DR7; APS susceptible HLA-DR7

binding result [12]: binds
B11: HLA-DR (HLA-DRA*01:01/HLA-DRB1*08:01) (other, human)
MHC II alpha: not shown
MHC II beta: not shown
notes: whole, on cells

binding result [13]: binds
B12: HLA-DR (HLA-DRA*01:01/HLA-DRB1*04:06) (other, human)
MHC II alpha: not shown
MHC II beta: not shown
notes: whole, on cells

binding result [14]: binds
binding result (human thyroglobulin (TG) [15]): binds
B13: HLA-DR (HLA-DRA*01:01/HLA-DRB1*14:03) (other, human)
MHC II alpha: not shown
MHC II beta: not shown
notes: whole, on cells

binding result [16]: binds
B14: HLA-DR (HLA-DRA*01:01/HLA-DRB1*10:01) (other, human)
MHC II alpha: not shown
MHC II beta: not shown
notes: whole, on cells

binding result [17]: binds
B15: HLA-DR (HLA-DRA*01:01/HLA-DRB1*08:03) (other, human)
MHC II alpha: not shown
MHC II beta: not shown
notes: whole, on cells

binding result [18]: binds
B16: HLA-DR (HLA-DRA*01:01/HLA-DRB1*13:02) (other, human)
MHC II alpha: not shown
MHC II beta: not shown
notes: whole, on cells

binding result [19]: binds
B17: HLA-DR (HLA-DRA*01:01/HLA-DRB1*12:01) (other, human)
MHC II alpha: not shown
MHC II beta: not shown
notes: whole, on cells

binding result [20]: binds
B18: HLA-DR (HLA-DRA*01:01/HLA-DRB1*14:02) (other, human)
MHC II alpha: not shown
MHC II beta: not shown
notes: whole, on cells

binding result [21]: binds
B19: HLA-DR (HLA-DRA*01:01/HLA-DRB1*04:02) (other, human)
MHC II alpha: not shown
MHC II beta: not shown
notes: whole, on cells

binding result [22]: binds
B20: HLA-DR (HLA-DRA*01:01/HLA-DRB1*03:01) (other, human)
MHC II alpha: not shown
MHC II beta: not shown
notes: whole, on cells; also called HLA-DR3

binding result [23]: binds
B21: HLA-DR (HLA-DRA*01:01/HLA-DRB1*13:03) (other, human)
MHC II alpha: not shown
MHC II beta: not shown
notes: whole, on cells

binding result [24]: binds
B22: HLA-DR (HLA-DRA*01:01/HLA-DRB1*09:01) (other, human)
MHC II alpha: not shown
MHC II beta: not shown
notes: whole, on cells
